Reference: patent US5817484A, “Thermoresistant α-1-antitrypsin mutein” (priority 1993, dated 1998)

Legend:
elastase [1] = assay: Thermal inactivation of purified AT at 57-58° C., remaining elastase inhibiting activity; format: physicochemical; conditions: for half-life: purified AT
Method: (§1) The activity of AT was measured by evaluating the inhibition by AT of the elastase's activity to degrade peptides in accordance with the procedure described by Travis & Johnson in Methods in Enzymol., 80, 754 (1981). Specifically, the AT's activity to inhibit elastase was evaluated by: mixing elastase and AT extract to react them, adding thereto a substrate (prepared by dissolving succinyl-alanyl-alanyl-alanyl-para-nitroanilide (SIGMA S4760) in dimethyl sulfoxide) and measuring the change of absorbency at 410 nm to determine the residual elastase activity. The thermal stability of AT was estimated by determining its activity of inhibiting elastase, using AT treated at 55° C. in case cell extract is used or at 57° to 58° C. in case a purified AT is used. As controls, a wild-type AT produced in E. coli or yeast cell and natural AT isolated and purified from human plasma were used.
The elastase inhibiting activity of AT was evaluated by using a modified method described by Travis et al. (Travis & Jonhson, Methods in Enzymol. 80, 754 (1981)). As a reaction buffer, 50 mM Tris (pH 8.0) containing 50 mM NaCl was used, and 15 mM succinyl-alanyl-alanyl-alanyl-paranitro-anilide (SIGMA S4760) dissolved in dimethyl-sulfoxide was used as a substrate for elastase. An enzyme solution was prepared by dissolving elastase to the concentration of 0.3 μM in the reaction buffer solution containing 50% glycerol.
(§2) The elastase inhibiting activity of AT was determined as follows: 10 μl of the enzyme solution, 10 to 50 μl of the AT extracts and the reaction buffer solution were mixed to make the final volume of 60 μl, and then reacted for 10 mins. After 430 μl of the reaction buffer solution and 10 μl of the substrate were added thereto, the change of absorbency at 410 nm was immediately measured for 3 mins.
For the comparison of their thermal stability, various kinds of AT muteins were incubated at 57° C., from which samples were taken every minute. Then the remaining activity of AT muteins was determined in the same manner as described in Example 1 above and their half-life and thermal inactivation rate were calculated from the slope of the plot of a logalithmic value of the remaining activity vs time (see FIG. 3).

elastase [2] = assay: Association constant to elastase (Beatty's method); format: biochemical
Method: as §1, with “Specifically,” for “The activity of AT was measured by evaluating the inhibition by AT of the elastase's activity to degrade peptides in accordance with the procedure described by Travis & Johnson in Methods in Enzymol., 80, 754 (1981). Specifically,”
From the reaction mixture containing the same concentrations (8 nM) of elastase and AT, samples of the mixture were taken every minute for 10 mins. 1 mM succinyl-alanyl-alanyl-alanyl-p-nitroanilide (SIGMAS4760) was added as a substrate to each sample. The elastase activity of each sample was determined by measuring the absorbency at 410 nm, and then the association constant was calculated from the plot slope of reciprocal of elastase concentration vs time.

elastase [3] = assay: Thermal stability at 55° C. of AT expressed in E. coli, elastase inhibiting activity measured every minute; format: physicochemical; conditions: FIG. 8
Method: as §1, with “As controls, a wild-type AT produced in E. coli or yeast cell and natural AT isolated and purified from human plasma were used.” left out
The elastase inhibiting activity of AT was evaluated by using a modified method described by Travis et al. (Travis & Jonhson, Methods in Enzymol. 80, 754 (1981)). […]
as §2

[4] = Table II, ATs produced in yeast and controls

Row | Substance | half-life (elastase [1]; at 57° C.) | half-life (elastase [1]; at 58° C.) | association constant (elastase [2]; Table I, 8 nM elastase and 8 nM AT, purified AT) | association constant (elastase [2]; [4]) | thermoresistance, times higher than the single mutant ATs (elastase [3]) | thermal resistance, times higher than that of the wild-type recombinant AT expressed in E. coli (elastase [1]; at 58° C.) | thermal resistance (in words) (elastase [1]; at 58° C., produced in yeast)
1 | Human plasma AT: natural α-1-antitrypsin from human plasma (A9204), purified over Affi-Gel Blue and mono-Q columns | 49.7 min | 35.2 min | 1.7e+06 M⁻¹ s⁻¹ | 1.7e+06 M⁻¹ s⁻¹ |  |  | 
2 | multiple mutant AT wherein the 51st residue is leucine and the 374th is isoleucine: α-1-antitrypsin with two replacements: 51st leucine and 374th isoleucine, expressed in E. coli |  |  |  |  | at least 300 times |  | 
3 | wild-type yeast AT (phenylalanine): wild-type α-1-antitrypsin produced in Saccharomyces diastaticus (pGAT11) |  | 6.9 min |  | 1.5e+06 M⁻¹ s⁻¹ |  | 5.3 times | a lower thermoresistance than that of the human plasma AT
